{"source": "paper PMC3706368", "target": "V5-tagged cdN protein (human) (UniProt Q8TCD5)", "sequence (Q8TCD5 whole entry)": "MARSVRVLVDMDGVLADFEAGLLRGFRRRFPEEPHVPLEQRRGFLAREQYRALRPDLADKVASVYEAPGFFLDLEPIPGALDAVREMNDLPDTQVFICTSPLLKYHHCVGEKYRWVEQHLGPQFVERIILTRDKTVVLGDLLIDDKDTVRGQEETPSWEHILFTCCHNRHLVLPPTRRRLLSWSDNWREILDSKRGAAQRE"}
{"substance": "myc-tagged full-length NS3/4A protein (natural protein)", "values": [{"measurement": "5'(3')-deoxyribonucleotidase activity (dephosphorylation of dUMP) in lysates of HuH7 cells with stable HCV NS3/4A expression, compared with cells with stable EGFP expression", "value": 70, "unit": "%"}]}
